Data as given in PMC2862694 (Cellular signalling, 2010).

B1: Gαi/q chimera (other)
chain: MGCTLSAEDKAAVERSKMIDRNLREDGERSRRELKLLLLGTGESGKSTFIKQMRIIHGSGYSDEDKRGFTKLVYQNIFTAMQAMIRAMDTLKIPYKYEHNKAHAQLVREVDVEKVSAFENPYVDAIKSLWNDPGIQECYDRRREYQLSDSTKYYLNDLDRVADPSYLPTQQDVLRVRVPTTGIIEYPFDLQSVIFRMVDVGGQRSERRKWIHCFENVTSIMFLVALSEYDQVLVESDNENRMEESKALFRTIITYPWFQNSSVILFLNKKDLLEEKIMYSHLVDYFPEYDGPQRDAQAAREFILKMFVDLNPDSDKIIYSHFTCATDTENIRFVFAAVKDTILQLNLKEYNLV
modifications: biotinylated (bead-bound in FCPIA)

How the values were obtained:
Assay in all cases: flow cytometry protein interaction assay
[1] = molecular target: B1
[2] = molecular target: T1, RhoA (UniProt P61586 1-193, biotinylated where bead-bound; Alexa Fluor 532 label where AF-labeled)
[3] = molecular target: p63RhoGEF DH/PH 4A alanine insertion mutant (human, UniProt Q86VW2-1 149-502, 4A: 4 alanines inserted after Thr338)
[4] = molecular target: p63RhoGEF DH/PH 6A alanine insertion mutant (human, UniProt Q86VW2-1 149-502, 6A: 6 alanines inserted after Thr338)
[5] = molecular target: p63RhoGEF DH/PH 5A alanine insertion mutant (human, UniProt Q86VW2-1 149-502, 5A: 5 alanines inserted after Thr338)
[6] = molecular target: p63RhoGEF DH/PH 7A alanine insertion mutant (human, UniProt Q86VW2-1 149-502, 7A: 7 alanines inserted after Thr338)
[7] = molecular target: p63RhoGEF DH/PH 1A alanine insertion mutant (human, UniProt Q86VW2-1 149-502, 1A: 1 alanine inserted after Thr338)
[8] = molecular target: p63RhoGEF DH/PH 2A alanine insertion mutant (human, UniProt Q86VW2-1 149-502, 2A: 2 alanines inserted after Thr338)
[9] = molecular target: p63RhoGEF DH/PH 3A alanine insertion mutant (human, UniProt Q86VW2-1 149-502, 3A: 3 alanines inserted after Thr338)
[10] = molecular target: T1, RhoA; remark: listed apart in the source

T1 sequence (P61586 whole entry): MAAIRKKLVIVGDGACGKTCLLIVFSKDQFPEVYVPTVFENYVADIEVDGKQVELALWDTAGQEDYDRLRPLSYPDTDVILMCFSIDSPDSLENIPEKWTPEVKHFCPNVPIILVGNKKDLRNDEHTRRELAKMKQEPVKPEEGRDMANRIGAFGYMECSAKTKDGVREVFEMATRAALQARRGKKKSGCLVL

Ki [1] [nM] | Ki [2] [nM] | Binder | other results
670 | 1200 | p63RhoGEF DH/PH-G340I (domain or fragment) not shown | 
68 |  | p63RhoGEF DH/PH-M336S (domain or fragment) not shown | 
120 | 94 | p63RhoGEF DH/PH-R341E (domain or fragment, Alexa Fluor 532 label in direct binding to RhoA; unlabeled as competitor) not shown | 
75 | 190 | p63RhoGEF DH/PH-R341A (domain or fragment, Alexa Fluor 532 label in direct binding to RhoA; unlabeled as competitor) not shown | 
40 |  | p63RhoGEF DH/PH-P330L (domain or fragment) not shown | 
48 |  | p63RhoGEF DH/PH-Δ(397-402) (domain or fragment) not shown | 
 | 300 | p63RhoGEF DH domain (residues 149-338) (domain or fragment) not shown | 
 |  | B1 | binding result [3]: binds; binding result [4]: binds; binding result [5]: binds; binding result [6]: binds; binding result [7]: binds; binding result [8]: binds; binding result [9]: binds
 |  | Gαi/q bound to p63RhoGEF DH/PH wild type (complex, biotinylated (bead-bound)) chain 1: MGCTLSAEDKAAVERSKMIDRNLREDGERSRRELKLLLLGTGESGKSTFIKQMRIIHGSGYSDEDKRGFTKLVYQNIFTAMQAMIRAMDTLKIPYKYEHNKAHAQLVREVDVEKVSAFENPYVDAIKSLWNDPGIQECYDRRREYQLSDSTKYYLNDLDRVADPSYLPTQQDVLRVRVPTTGIIEYPFDLQSVIFRMVDVGGQRSERRKWIHCFENVTSIMFLVALSEYDQVLVESDNENRMEESKALFRTIITYPWFQNSSVILFLNKKDLLEEKIMYSHLVDYFPEYDGPQRDAQAAREFILKMFVDLNPDSDKIIYSHFTCATDTENIRFVFAAVKDTILQLNLKEYNLV chain 2: not shown | Kd [10]: 17 nM
